Test results published in patent US20250277059A1, “ANTIBODY USED TO TREAT CORONAVIRUS INFECTION” (priority 2022, published 2025).
Substitutions are numbered along the chain they refer to. Like-named read-outs stand apart in the source and are kept apart here.

Legend:
[1] = target: Human TMPRSS2 expressed on cells (human) (UniProt O15393); experiment: flow cytometry, COS7 transfectant; Q1 23.3
[2] = target: T1, Mouse TMPRSS2 expressed on cells (mouse, UniProt Q9JIQ8 1-490); experiment: flow cytometry, Daudi transfectant
T1 sequence (Q9JIQ8 whole entry): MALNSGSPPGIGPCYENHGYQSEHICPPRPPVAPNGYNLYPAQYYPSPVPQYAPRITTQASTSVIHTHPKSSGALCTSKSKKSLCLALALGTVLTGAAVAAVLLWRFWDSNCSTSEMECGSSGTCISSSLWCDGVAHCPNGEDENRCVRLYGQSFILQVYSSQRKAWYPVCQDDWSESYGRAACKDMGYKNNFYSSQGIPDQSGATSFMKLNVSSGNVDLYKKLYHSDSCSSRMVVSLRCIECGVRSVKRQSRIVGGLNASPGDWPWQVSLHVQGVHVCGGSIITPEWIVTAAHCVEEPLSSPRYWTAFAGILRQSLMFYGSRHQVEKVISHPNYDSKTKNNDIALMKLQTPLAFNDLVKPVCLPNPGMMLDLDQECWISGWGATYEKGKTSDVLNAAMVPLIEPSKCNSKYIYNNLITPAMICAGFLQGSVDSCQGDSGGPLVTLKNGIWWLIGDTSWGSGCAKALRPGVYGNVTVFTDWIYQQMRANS

[3] = target: Cynomolgus monkey TMPRSS2 expressed on cells (cynomolgus monkey); experiment: flow cytometry, Daudi transfectant
[4] = target: Human TMPRSS2 expressed on cells (human) (UniProt O15393); experiment: flow cytometry, Daudi transfectant
[5] = target: T2, Human TMPRSS2 recombinant protein, extracellular region (N-terminal His tag, C-terminal Strep-tag II) (human, UniProt O15393 106-492); experiment: SPR (BIAcore); rounded repeat of Table 1
T2 construct: also called Human TMPRSS2 recombinant proteins; extracellular region of human TMPRSS2
T2 sequence (O15393 other isoform, or with tags, fused parts or gaps limits assumed): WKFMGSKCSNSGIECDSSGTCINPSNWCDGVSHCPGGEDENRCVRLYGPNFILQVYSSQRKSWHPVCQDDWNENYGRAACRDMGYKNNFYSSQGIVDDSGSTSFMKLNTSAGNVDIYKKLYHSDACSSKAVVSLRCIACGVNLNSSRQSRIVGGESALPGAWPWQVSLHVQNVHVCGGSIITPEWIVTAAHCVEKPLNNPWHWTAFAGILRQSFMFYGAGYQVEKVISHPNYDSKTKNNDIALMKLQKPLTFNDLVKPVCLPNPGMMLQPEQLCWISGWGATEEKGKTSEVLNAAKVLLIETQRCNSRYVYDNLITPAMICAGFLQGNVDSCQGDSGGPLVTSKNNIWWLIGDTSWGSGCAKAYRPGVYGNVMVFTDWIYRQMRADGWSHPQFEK

[6] = target: T1, Mouse TMPRSS2 expressed on cells; experiment: flow cytometry, Daudi transfectant; remark: listed apart in the source
[7] = target: T2, Human TMPRSS2 recombinant protein, …; experiment: SPR (BIAcore), captured mAb, soluble human TMPRSS2 extracellular region
[8] = target: T3, Human TMPRSS2 expressed on cells (human, UniProt O15393 1-492); experiment: cell-based or functional assay
T3 sequence (O15393 whole entry): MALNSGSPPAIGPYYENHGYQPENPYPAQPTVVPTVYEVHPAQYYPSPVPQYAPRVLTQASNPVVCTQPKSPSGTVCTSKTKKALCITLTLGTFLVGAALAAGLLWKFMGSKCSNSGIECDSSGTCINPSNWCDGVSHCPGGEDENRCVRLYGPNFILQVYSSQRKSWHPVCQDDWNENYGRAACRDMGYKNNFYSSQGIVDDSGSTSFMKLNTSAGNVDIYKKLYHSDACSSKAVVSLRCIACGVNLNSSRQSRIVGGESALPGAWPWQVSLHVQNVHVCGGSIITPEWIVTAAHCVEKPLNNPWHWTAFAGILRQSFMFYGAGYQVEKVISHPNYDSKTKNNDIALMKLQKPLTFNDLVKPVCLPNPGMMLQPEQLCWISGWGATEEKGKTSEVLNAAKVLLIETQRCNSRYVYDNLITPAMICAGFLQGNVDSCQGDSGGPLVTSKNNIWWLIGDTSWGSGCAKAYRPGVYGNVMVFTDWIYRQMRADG

[9] = target: T3, Human TMPRSS2 expressed on cells; experiment: cell-based or functional assay; remark: listed apart in the source
[10] = target: T4, TMPRSS-11D (human, UniProt O60235); experiment: ELISA, Strep-tagged protein on streptavidin plate
T4 sequence (single chain, looked up): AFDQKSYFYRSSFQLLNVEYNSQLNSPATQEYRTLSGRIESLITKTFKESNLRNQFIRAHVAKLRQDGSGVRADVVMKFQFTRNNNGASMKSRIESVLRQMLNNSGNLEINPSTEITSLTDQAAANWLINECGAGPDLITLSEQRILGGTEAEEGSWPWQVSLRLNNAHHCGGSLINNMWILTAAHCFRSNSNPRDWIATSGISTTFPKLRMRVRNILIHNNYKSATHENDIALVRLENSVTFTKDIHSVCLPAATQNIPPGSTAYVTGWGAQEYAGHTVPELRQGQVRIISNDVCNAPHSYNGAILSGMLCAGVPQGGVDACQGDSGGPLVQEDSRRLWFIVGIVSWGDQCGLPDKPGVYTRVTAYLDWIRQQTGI

[11] = target: TMPRSS-11F (human, UniProt Q6ZWK6); experiment: ELISA, Strep-tagged protein on streptavidin plate
TMPRSS-11F, sequence (Q6ZWK6 54-438 limits assumed): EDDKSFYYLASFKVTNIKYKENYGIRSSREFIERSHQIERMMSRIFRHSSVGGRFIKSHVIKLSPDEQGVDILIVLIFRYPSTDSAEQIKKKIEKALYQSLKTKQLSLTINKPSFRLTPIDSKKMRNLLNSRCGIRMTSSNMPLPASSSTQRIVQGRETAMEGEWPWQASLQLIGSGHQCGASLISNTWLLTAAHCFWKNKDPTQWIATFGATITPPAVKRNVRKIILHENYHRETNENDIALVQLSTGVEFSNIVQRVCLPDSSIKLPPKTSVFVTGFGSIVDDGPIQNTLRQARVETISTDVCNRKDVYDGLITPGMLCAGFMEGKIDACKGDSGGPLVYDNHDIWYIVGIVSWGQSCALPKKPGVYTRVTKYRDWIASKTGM

[12] = target: T5, TMPRSS-13 (human, UniProt Q9BYE2); experiment: ELISA, Strep-tagged protein on streptavidin plate
T5 sequence (single chain, looked up): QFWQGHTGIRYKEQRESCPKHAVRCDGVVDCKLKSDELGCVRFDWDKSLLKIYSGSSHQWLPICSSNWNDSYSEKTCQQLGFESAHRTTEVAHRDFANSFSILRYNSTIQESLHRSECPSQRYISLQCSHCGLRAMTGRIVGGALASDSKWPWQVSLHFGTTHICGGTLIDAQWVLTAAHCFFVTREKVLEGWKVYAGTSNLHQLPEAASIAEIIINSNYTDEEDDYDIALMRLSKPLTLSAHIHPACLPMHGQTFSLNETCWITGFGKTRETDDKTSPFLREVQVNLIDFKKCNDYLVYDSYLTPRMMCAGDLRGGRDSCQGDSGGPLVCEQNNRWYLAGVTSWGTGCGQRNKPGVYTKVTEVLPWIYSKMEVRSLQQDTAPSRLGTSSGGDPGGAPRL

[13] = target: T6, TMPRSS-11E (human, UniProt Q9UL52); experiment: ELISA, Strep-tagged protein on streptavidin plate
T6 sequence (single chain, looked up): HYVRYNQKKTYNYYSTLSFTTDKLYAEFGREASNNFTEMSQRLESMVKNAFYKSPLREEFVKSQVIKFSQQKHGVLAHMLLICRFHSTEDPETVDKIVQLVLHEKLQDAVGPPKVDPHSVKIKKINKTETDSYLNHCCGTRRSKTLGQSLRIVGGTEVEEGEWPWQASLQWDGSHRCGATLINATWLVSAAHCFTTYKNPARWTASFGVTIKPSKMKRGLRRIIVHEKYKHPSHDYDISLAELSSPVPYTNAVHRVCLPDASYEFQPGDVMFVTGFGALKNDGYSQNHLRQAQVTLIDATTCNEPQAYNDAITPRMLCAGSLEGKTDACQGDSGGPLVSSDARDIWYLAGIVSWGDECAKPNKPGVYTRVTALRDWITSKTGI

[14] = target: T1, Mouse TMPRSS2 expressed on cells; experiment: flow cytometry, Daudi transfectant; remark: listed apart in the source
[15] = target: T3, Human TMPRSS2 expressed on cells; experiment: flow cytometry, Daudi transfectant
[16] = target: T7, human TMPRSS2 (Homo sapiens, UniProt O15393); experiment: BIACore binding assay of anti-TMPRSS2 antibodies; details: Table 1, mouse mAbs, 25° C.
Target sequence in this assay (O15393 106-492 limits assumed): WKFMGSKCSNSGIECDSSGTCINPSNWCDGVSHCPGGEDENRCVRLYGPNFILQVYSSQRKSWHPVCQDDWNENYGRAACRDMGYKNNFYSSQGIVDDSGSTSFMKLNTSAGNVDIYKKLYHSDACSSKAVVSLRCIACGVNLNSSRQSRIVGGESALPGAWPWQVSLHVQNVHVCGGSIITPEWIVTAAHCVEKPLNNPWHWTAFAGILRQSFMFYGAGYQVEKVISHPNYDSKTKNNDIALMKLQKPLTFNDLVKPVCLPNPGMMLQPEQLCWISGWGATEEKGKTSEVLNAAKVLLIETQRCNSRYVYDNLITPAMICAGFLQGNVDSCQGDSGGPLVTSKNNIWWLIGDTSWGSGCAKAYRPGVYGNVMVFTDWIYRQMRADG

[17] = test system: TMPRSS2 of non-human animal species; type: binding; details: Table 3; species whose TMPRSS2 is bound
[18] = target: T8, mouse TMPRSS2 (Mus musculus, UniProt Q9JIQ8); experiment: FACS cross-reactivity to mouse TMPRSS2; type: binding; details: FIGS. 10C and 10D
T8 construct: expressed in transfected cells; host or cells: Daudi
T8 sequence (Q9JIQ8 whole entry): as the sequence (Q9JIQ8 whole entry) above

[19] = target: T9, amino acid sequence set forth in SEQ ID NO: 85 ([…]) (Homo sapiens, UniProt O15393); experiment: Epitope mapping by peptide array; type: binding; details: 20-meric peptide array, FIGS. 5A to 5B
T9 construct: purchased JPT Peptide Technologies GmbH; host or cells: synthetic peptides on glass slide

[20] = target: T7, human TMPRSS2; experiment: Competitive inhibition between anti-TMPRSS2 mAbs (flow cytometry); type: binding; details: FIG. 3B
Target sequence in this assay (O15393 whole entry): as the sequence (O15393 whole entry) above

[21] = test system: human TMPRSS family proteins; experiment: Binding properties to TMPRSS family; details: FIG. 9
Experimental: The reactivity of anti-TMPRSS2 mAbs to extracellular regions of human TMPRSS family proteins was analyzed by ELISA method. To a streptavidin-coated 96-well plate (Thermo Scientific, 436014), 100 μl each of 78 nM Strep-tagged recombinant proteins in PBS was captured at room temperature for 2 hours and washed 5 times with PBST (0.1% Tween 20/PBS). Anti-TMPRSS2 mAbs (10 μg/mL), mouse IgG (Equitech-Bio, SLM66) or Ni-NTA-HRP (KPL, 24-01-01) as controls, diluted to 0.2% BSA in PBST was added thereto to incubate for 2 hours. After washing with PBST, the bound IgG was detected with 100 μl horseradish peroxidase Goat anti-mouse IgG antibody (BioLegend, Inc.) diluted to 1:15,000 in PBST at room temperature for 1 hour and washed with PBST. 100 μl TMB substrate solution (SeraCare Life Sciences, Inc. 5120-0077) was added to the well and allowed to color at room temperature for a few minutes. The reaction was stopped with 100 μl 2M H2SO4. The optical density (OD) was read at 450 nm while referring to OD with a microplate reader (ARVO ×3, PerkinElmer, Inc.).

Human TMPRSS2 expressed on cells (human), sequence (O15393 whole entry): as above

In the case of mIgG (antibody), the Q2 (percent of cells GFP+ and stained) [1] is reported as 0.015, the Q2 (percent of cells GFP+ and stained) [2] is reported as 0.011 and the Q2 (percent of cells GFP+ and stained) [3] is reported as 1.51. The Q2 (percent of cells GFP+ and stained) [4] was 0.12.

B1: 2114_16 antibody (antibody, V domains shown)
VH: EVQLQQSGPELVKPGASVKISCKASGYTFTDYYMNWVKRRHGKSLEWIGNINPNNGGTSYNQKFKGKATLTVDKSSSTAYMELRSLTSEDSVVYYCAREGDLFPFAYWGQGTLVTVSA
VL: QAVVTQESALTTSPGETVTLTCRSSIGTVTTSNFANWVQEKPDHLFTGLIGASNNRAPGVPARFSGSLIGDKAALTITGAQTEDEAIYFCALWFSNHWVFGGGTKLTVL
notes: also called 2114 antibody
B1 was tested, and the Kd [5] was 1 nM, the binding result [6] was “no binding (tested: 1 µg/mL)” and the Kd [7] was 1.04 nM. For the same molecule, the koff [7] was 0.000591 s⁻¹, the kon [7] was 570000 M⁻¹ s⁻¹ and the “IC90, First run; live SARS-CoV-2 infection of Calu-3 cells” value [8] was 1.5 µg/mL. For the same molecule, the “IC90, Second run; live SARS-CoV-2 infection of Calu-3 cells” value [8] was 3.4 µg/mL and the “Activity: Calu-3 Inhibiton” value [9] was 47.6.

B2: 2020_12 antibody (antibody, V domains shown)
VH: QVQLQQPGAELAKPGASVKLSCKASGYTFTSYWMHWVKQRPGQGLEWIGLIPPNSGSSNYNEKFKSKATLTVDKSSRTAYMQLSSLTSEDSAVYYCARWDYGSSYGYFDVWGTGTTVTVSS
VL: DIVLTQSPASLAVSLGQRATISCRASESVSTSGYSYMHWYQQKPGQPPKLLIYLASNLESGVPVRFSGSGSGTDFTLNIHPVEEEDAATYYCQHSRELPPTFGAGTKLELK
With B2 the Kd [5] was 2.7 nM, the Kd [7] was 2.69 nM and the koff [7] was 0.00176 s⁻¹. For the same molecule, the kon [7] was 654000 M⁻¹ s⁻¹, the binding result [10] was “no binding (tested: 10 µg/mL)” and the binding result [11] was “no binding (tested: 10 µg/mL)”. For the same molecule, the binding result [12] was “no binding (tested: 10 µg/mL)”, the binding result [13] was “no binding (tested: 10 µg/mL)” and the “Q2 (percent of cells GFP+ and stained)” value [14] was 48.5. The “Q2 (percent of cells GFP+ and stained)” value [15] was 99.9, the “IC90, First run; live SARS-CoV-2 infection of Calu-3 cells” value [8] was 0.23 µg/mL and the “IC90, Second run; live SARS-CoV-2 infection of Calu-3 cells” value [8] was 0.13 µg/mL. For the same molecule, the Q2 (percent of cells GFP+ and stained) [3] was 0.88 and the “Activity: Calu-3 Inhibiton” value [9] was 66.

B3: 2020_12: mouse anti-human TMPRSS2 monoclonal antibody, IgG2c κ; VH SEQ ID NO: 25, VL SEQ ID NO: 26 (antibody, V domains shown)
VH: B2 VH
VL: B2 VL
modifications: mouse IgG2c kappa constant regions; 2020_12 VH; 2020_12 VL
With B3 the “ka” value [16] was 654000 M⁻¹ s⁻¹, the “kd” value [16] was 0.001759 s⁻¹ and the Cross-reactivity [17] was “Mouse”. For the same molecule, the “cross-reactivity to mouse TMPRSS2” value [18] was “exhibited the cross-reactivity”, the “binding to peptide of SEQ ID NO: 85” value [19] was “particularly bound” and the “competition with 2228_15 antibody for binding to human TMPRSS2” value [20] was “competed”. For the same molecule, the “binding properties to the TMPRSS family” value [21] was “bound specifically only to TMPRSS2”.

B4: 1864_10: mouse anti-human TMPRSS2 monoclonal antibody, IgG2b κ; VH SEQ ID NO: 17, VL SEQ ID NO: 18 (antibody, V domains shown)
VH: QVQLQQSGPALVKPGASLKISCEASGYTFTYYSINWVKQRPGQGLEWIGWIFPGSGSTYYNEKFKGKATLTIDKSSSTAYMLLSSLTSEDSAVYFCARSDYGSAYGYFDVWGTGTTVTVSS
VL: B2 VL with E27K, V64A, E97D, P100L
modifications: mouse IgG2b kappa constant regions; 1864_10 VH; 1864_10 VL
For B4, the “ka” value [16] was 563000 M⁻¹ s⁻¹, the “kd” value [16] was 0.002894 s⁻¹ and the Cross-reactivity [17] was “Mouse”. For the same molecule, the “cross-reactivity to mouse TMPRSS2” value [18] was “exhibited the cross-reactivity”, the “binding to peptide of SEQ ID NO: 85” value [19] was “particularly bound” and the “competition with 2228_15 antibody for binding to human TMPRSS2” value [20] was “competed”. The “binding properties to the TMPRSS family” value [21] was “bound specifically only to TMPRSS2”.

B5: 1831_15 antibody (antibody, V domains shown)
VH: QVQLQQPGAELVKPGASVKLSCKASGYSFTTYWMHWVRQRPGQGLEWIGIIHPNSGTTNYNEKFKSKASLTVDKSSSTAYMQLSSLTSEDSAVYYCARLLWDYFDYWGQGTTLTVSS
VL: DIVMSQSPSSLAVSAGEKVTMSCKSSQSLLNSRTRKNFLAWYQQKPGQSPKLLIYWASTRESGVPDRFTGSGSGTDFTLTISSVQAEDLAVYYCKQSYNLYTFGGGTKLEIK
In the case of B5, the Kd [5] is reported as 0.42 nM, the binding result [6] is reported as “no binding (tested: 1 µg/mL)” and the Kd [7] is reported as 0.418 nM. The koff [7] was 0.000236 s⁻¹, the kon [7] was 563000 M⁻¹ s⁻¹ and the “Activity: Calu-3 Inhibiton” value [9] was 44.8.
